Assay results as given in patent US20150316552A1, “Human Notch Receptor Mutations and Their Use” (OncoMed Pharmaceuticals, Inc., priority 2011, published 2015).
Entries after “also recorded” stand apart in the source; their conditions may differ.

What was measured:
OMP-B40 breast tumors = assay: OMP-B40 breast tumor xenograft, tumor growth; format: in vivo, NOD/SCID mice
Procedure: B40 p3 tumor cells were injected subcutaneously into the left flank of 6-7 week old female NOD/SCID mice (300,000 cells/mouse). Mice were monitored weekly and tumors were allowed to grow until they were approximately 140 mm^3 (78 days after injection). Mice were randomized into five treatment groups and treated with control antibody, or different doses (0.3 mg/kg, 1 mg/kg, 3 mg/kg, 10 mg/kg) of the OMP-52M51 humanized anti-NOTCH1 antibody. The antibodies were dosed i.p. twice a week. Tumor growth was monitored by caliper measurement once a week.
Dissociated OMP-B40 p3 tumor cells were re-suspended in injection media (PBS containing 100 ng/mL VEGF and 100 ng/mL bFGF and 0.5× matrigel) and injected subcutaneously into the left flank of 6-7 week old female NOD/SCID mice (300,000 cells/mouse). Mice were monitored weekly and tumors were allowed to grow until they were approximately 140 mm^3 (78 days after injection). Mice were randomized into four treatment groups (n=10 mice/group) and treated with control antibody, anti-NOTCH1 antibody OMP-52M51, taxol or a combination of OMP-52M51 with taxol. The antibodies were dosed i.p. twice a week at 15 mg/kg and Taxol was dosed i.p. once a week at 20 mg/kg. Tumor growth was monitored by caliper measurement once a week.
As described in Example 2, three hundred thousand OMP-B40 tumor cells were injected subcutaneously and allowed to grow to a mean volume of […] At that point, 78 days after study start, mice were randomized and treatment started. Mice received either 15 mg/kg control antibody or 15 mg/kg OMP-52M51 humanized antibody twice weekly, with or without 20 mg/kg paclitaxel once weekly, all administered by IP injection. Mean±SEM, n=10 animals per group.

NOTCH1.ICD = NOTCH1.ICD IHC of treated OMP-B40 tumors; format: in vivo, NOD/SCID mice; conditions: OMP-B40 tumors from treated mice; FIGS. 3C and D
Procedure: NOTCH1.ICD Immunohistochemistry (IHC) staining was performed with a tyramide signal amplification (TSA) modification of standard IHC protocol. Slides were de-waxed and rehydrated then subjected to antigen retrieval in DAKO TRS solution (DAKO # S1699) under heat and pressure in a BioCare Decloaker benchtop pressure cooker. Endogenous peroxidase was blocked with 6% H2O2 in phosphate buffered saline, then protein block was applied (CAS block, Invitrogen #008120). Primary antibody was incubated overnight at 4° C. at an appropriate dilution. Sections were then incubated with DAKO rabbit HRP polymer (DAKO # K4011), followed by FITC labeled TSA substrate (Perkin Elmer # NEL701001KT). FITC was then detected with HRP-conjugated anti-FITC antibodies (Rockland # RL700-103-096), and DAB substrate (DAKO # K3468) added to visualize the antibody-detection complex.
OMP-B40 tumors were harvested from control and OMP-52M51-treated mice with or without paclitaxel. IHC analysis was performed on tumors from OMP-B40 to detected the activated form of NOTCH1 using a rabbit polyclonal antibody that specifically recognizes NOTCH1-ICD. […] Thus, the NOTCH1-ICD IHC assay serves as key biomarker for OMP-52M51 and can be used to monitor pharmacodynamic response and NOTCH pathway activity in tumor tissues.

[1] = test system: OMP-LU61 small cell lung cancer; assay: OMP-LU61 small cell lung cancer, sensitivity to treatment; format: in vivo; conditions: elevated NOTCH1-ICD, no known NOTCH1 mutation; FIG. 10

B1: OMP-52M51: humanized anti-NOTCH1 antibody, plasmid ATCC PTA-9549; heavy chain variable region SEQ ID NO:14, light chain variable region SEQ ID NO:18 (antibody, V domains shown)
VH: QVQLVQSGAEVKKPGASVKISCKVSGYTLRGYWIEWVRQAPGKGLEWIGQILPGTGRTNYNEKFKGRVTMTADTSTDTAYMELSSLRSEDTAVYYCARFDGNYGYYAMDYWGQGTTVTVSSA
VL: SGVDSQAVVTQEPSLTVSPGGTVTLTCRSSTGAVTTSNYANWFQQKPGQAPRTLIGGTNNRAPGVPARFSGSLLGGKAALTLSGAQPEDEAEYYCALWYSNHWVFGGGTKLTVLG
modifications: 52M51-H4 heavy chain variable region amino acid sequence without putative signal sequence; 52M51-L3 light chain variable region amino acid sequence without putative signal sequence
OMP-B40 breast tumors; 15 mg/kg antibody twice weekly, with or without 20 mg/kg paclitaxel once weekly, IP, FIG. 3B
  tumor volume in xenografted animals (in words): greatly decreased tumor volume
OMP-B40 breast tumors; OMP-52M51 0.3, 1, 3, 10 mg/kg i.p. twice a week, FIG. 3A
  tumor volume versus control, dose response: reduction in tumor volume versus control at all doses tested; also recorded: Dose dependent activity
OMP-B40 breast tumors; antibodies 15 mg/kg i.p. twice a week, Taxol 20 mg/kg i.p. once a week, FIG. 3B
  reduction in tumor volume versus control: 21.8%
OMP-B40 breast tumors; tumor with elevated NOTCH1-ICD
  sensitivity to treatment: significant sensitivity
NOTCH1.ICD
  NOTCH1.ICD accumulation detected by IHC: reduction in NOTCH1.ICD; also recorded: blocks NOTCH-ICD accumulation in the nucleus; also recorded: blocks NOTCH1.ICD accumulation
[1]
  sensitivity to treatment: significant sensitivity
